Laboratory results as given in patent US12344637B2, “Virus-inspired compositions and methods of redirecting preexisting immune responses using the same for treatment of cancer” (priority 2020, dated 2025).

Columns and labels:
MC38 cells [1] = assay: OVA peptide loading in the presence of furin inhibitor; format: cell-based, murine; conditions: IRC 2.5 μg/mL
Description: (Millipore-Sigma, St. Louis, MO). This furin inhibitor binds irreversibly to the catalytic site of furin, blocking all furin protease activity.
Briefly, 2×10^5 MC38 cells (murine colon adenocarcinoma, #ENH204-FP, Kerafast, Inc., Boston MA) were seeded in a FACs tube and then incubated with either 0.5 μM, […], or 50 μM furin inhibitor dissolved in DMSO at total final sample volume of 200 μL. Control samples containing no inhibitor were prepared the same way with the same volume equivalent of DMSO. The samples were incubated for fifteen minutes in a tissue culture incubator at 37° C., 5% CO2. Then, 2.5 μg/mL of OVA-conjugated MPV.10.34.d IRC was added to all samples and the samples were incubated in a tissue culture incubator at 37° C., 5% CO2. Samples were then washed twice with 2 to 3 mL FACS buffer and then stained with PE-conjugated-mouse anti-mouse MHC I bounded with OVA (SIINFEKL, SEQ ID NO:95) monoclonal antibody (Biolegend, Cat #141604, San Diego, CA) for 30 minutes at 4° C. Following this, samples were washed once with 3 mL FACS buffer then the cells were resuspended in 250 μL of FACS buffer before being analyzed by a CytoFLEX flow cytometer. (Beckman Coulter Life Sciences, Brea, CA, US).

[2] = HPV16 L1 deletion mutants; cited from earlier work
[3] = ELISA of anti-MPV.10.34.d IRC sera; format: binding, mice; conditions: serum from 1:100, two-fold dilutions
Description: (§1) Antibodies against wild type MPV were generated as follows: New Zealand white rabbits (n=3) were administered three intra-muscular vaccinations of 50 μg of wild type mouse papillomavirus particles per dose. Rabbits were vaccinated at months 0, 1, and 2. After two weeks post final vaccination, rabbits were bled to obtain the anti-MPV sera. Antibodies against MPV.10.34.d IRC were obtained as follows: naïve 6 to 8 week old C57/BL6 mice (n=10) were injected systemically with two doses of 150 μg of E7-conjugated MPV.10.34.d over a period of 48 hours. After 48 hours, the mice were bled to obtain the anti-MPV.10.34.d IRC sera.
(§2) Specificity of anti-MPV.10.34.d IRC sera and anti-MPV sera to both MPV.10.34.d capsid backbone and MPV.10.34.d IRC was examined by ELISA. The assays were performed as described in Example 5 with the following differences: serum samples were tested at a 1:100 dilution factor and two-fold serial dilutions. Goat anti-mouse IgG-HRP secondary antibody was used in the ELISA (1:7000). Binding of anti-MPV.10.34.d IRC sera (FIG. 31) and anti-MPV scrum (data not shown) to both MPV.10.34.d capsid backbone (FIG. 31A) and MPV.10.34.d IRC (FIG. 31B) was observed.

[4] = test system: MPV.A4 monoclonal antibody; assay: ELISA with MPV.A4 conformational monoclonal antibody; format: binding
Description: The MPV.A4 antibody is a conformational antibody that specifically binds to MPV L1 in the form of T=1 or T=7 capsid backbone structure. This antibody will not bind to denatured or monomeric MPV L1. (Hafenstein et al., 2020, “Atomic Resolution CRYOEM structure of Mouse Papillomavirus,” International Papillomavirus Conference, Jul. 20-24, 2020). To determine whether MPV.10.34.d undergoing the steps in Example 1 or Example 4 yields a T=1 capsid backbone, ELISA was performed on these samples with the MPV.A4 monoclonal antibody.
Samples from Example 1 and Example 4 of equal concentrations (starting concentration of 1000 ng/well) were subjected to ELISA. To ensure that both soluble and refolded MPV.10.34.d were equally bound to the ELISA plate (Nunc Maxisorp, ThermoFisher Scientific, Waltham, MA, US), both samples were first buffer exchanged into either 50 mM NaPO4, 450 mM NaCl at pH 6 or pH 7. […] Based on this, a total of four sample conditions were two-fold serially diluted and subjected to ELISA with the MPV.A4 monoclonal antibody.
Briefly, eight different amounts of protein (7.8 ng to 1 μg) for each sample under both pH conditions (into either 50 mM NaPO4, 450 mM NaCl at pH 6 or pH 7) were first added to the ELISA plate and the plate was stored at 4° C. […] The absorbance of the sample plates were read at 450 nm and 620 nm with a plate reader (BioTek, Winooski, VT, US).

MC38 cells [5] = assay: In vitro cell binding assay (flow cytometry), MC38; format: cell-based, murine; conditions: MC38, 1 h 37° C.
Description: (§3) To assess whether IRC bind to tumor cells, an in vitro cell binding assay was conducted. Specifically, both MPV.10.34.d capsid backbones (unconjugated) as well as different conjugated IRC (human CMV pp65, murine E7, and murine OVA peptide) were examined.
(§4) Briefly, 2×10^5 MC38 cells (murine colon adenocarcinoma, #ENH204-FP Kerafast, Inc., Boston MA) or pgsA-745 cells (Chinese hamster ovary cell mutant deficient in xylosyltransferase (UDP-D-xylose:serine-1,3-D-xylosyltransferase, ATCC CRL-2242) in which heparin sulfate proteoglycan (HSPG) expression is knocked out, were seeded overnight. The next day, the cells were treated with human CMV pp65, murine HPV16 E7, and murine OVA peptide, as well as the MPV.10.34.d capsid backbone for one hour at 37° C. Cells were then washed twice with 2 to 3 mL of a fluorescence activated cell sorting (FACS) buffer (1% bovine serum albumin in PBS) and then stained with 1 mL of rabbit anti-musPsV serum antibodies for 30 minutes at 4° C. Following this, samples were washed once with 3 mL FACS buffer and stained with 0.5 mL of donkey anti-rabbit IgG-PE antibody (Biolegend, San Diego, CA) for 30 min at 4° C. in the dark. Finally, samples were washed once more with 3 mL FACS buffer and then resuspended in […] of FACS buffer before being analyzed by a CytoFLEX flow cytometer (Beckman Coulter Life Sciences, Brea, CA, US).

MCF7 = assay: In vitro cytotoxicity assay with human CMV T cells, MCF7; format: cell-based; conditions: MCF7, 2.5 μg/mL, E:T 10:1, 24 hrs
Description: (§5) In these experiments, CD8+ T cell responses to CMV peptides were tested in three different human tumor cell lines, including HCT116, OVCAR3, and MCF7. All three of these human tumor cell lines are HLA-A*0201 positive.
(§6) In Vitro Cytotoxicity Assays. […], human colon cancer cells, MCF7, human breast cancer cells, and OVCAR3, human ovarian cancer cells (all from ATCC, Manassas, VA, US) were seeded overnight at 0.01 to 0.2×10^6 per well per 100 μL per 96 well plate. The next day (about 20 to 22 hrs later), each cell line was incubated for one hour at 37° C. under the following conditions: (1) CMV peptide at a final concentration of 1 μg/mL (positive control), (2) MPV.10.34.d at a final concentration of 2.5 μg/mL (negative control), (3) CMV-conjugated MPV.10.34.d IRC at a final concentration of 2.5 μg/mL, (4) CMV-conjugated HPV16 IRC at a final concentration of 2.5 μg/mL, and (5) no antigen (negative control). After 1 hour, the cells were washed vigorously with 200 μL of media for three times to remove non-specific binding. […] Cell viability was measured after co-culturing. Cell viability was measured with CELLTITER-GLO® (Promega, Madison, WI, US). […] The amount of ATP generated from tumor cells was quantified according to manufacturer protocols.

HCT116 = assay: In vitro cytotoxicity assay with human CMV T cells, HCT116; format: cell-based; conditions: HCT116, 2.5 μg/mL, E:T 10:1, 24 hrs
Description: as §5, §6

ELISA of anti-MPV sera = format: binding, rabbits; conditions: data not shown
Description: as §1, §2

OVCAR3 = assay: In vitro cytotoxicity assay with human CMV T cells, OVCAR3; format: cell-based; conditions: OVCAR3, 2.5 μg/mL, E:T 10:1, 24 hrs
Description: as §5, §6

pgsA-745 cells = assay: In vitro cell binding assay (flow cytometry), HSPG knock-out cells; format: cell-based, Chinese hamster; conditions: pgsA-745, 1 h 37° C.
Description: as §3, §4

[6] = Transmission electron microscopy (TEM) size and structure; format: physicochemical; conditions: purified refolded capsid backbone
Description: TEM analysis was also employed to obtain further visual confirmation of the structure and size of the refolded proteins. Samples (10 μL) were adsorbed to glow discharged (EMS GloQube) carbon coated 400 mesh copper grids (EMS), by floatation for 2 min. Grids were quickly blotted and then rinsed in 3 drops (1 min each) of TBS. Grids were negatively stained in 2 consecutive drops of 1% uranyl acetate with tylose (1% UAT, double filtered, 0.22 μm filter), blotted then quickly aspirated to obtain a thin layer of stain covering the sample. Grids were imaged on a Phillips CM-120 TEM operating at 80 kV with an AMT XR80 CCD (8 megapixel).

Molecule: decanoyl-RVKR-CMKa [furin inhibitor, reference compound]
- OVA peptide loading (MC38 cells [1]; furin inhibitor 0.5 μM): prevents OVA-conjugated MPV.10.34.d IRCs from loading OVA epitopes
- OVA peptide loading (MC38 cells [1]; furin inhibitor 5 μM): prevents OVA-conjugated MPV.10.34.d IRCs from loading OVA epitopes
- OVA peptide loading (MC38 cells [1]; furin inhibitor 50 μM): prevents OVA-conjugated MPV.10.34.d IRCs from loading OVA epitopes

Molecule: ΔN = 0: HPV16 L1 protein without N-terminal deletion (Chen et al., 2000)
- Apparent Diameter of Assembled Particle (Å) [2]: 600 Å

B1: MPV.10.34.d capsid backbone (protein)
chain: MLYLPPTTPVAKVQSTDEYVYPTSLFCHAHTDRLLTVGHPFFSVIDNDKVTVPKVSGNQYRVFRLKFPDPNKFALPQKDFYDPEKERLVWRLRGLEIGRGGPLGIGTTGHPLFNKLGDTENPNKYQQGSKDNRQNTSMDPKQTQLFIVGCEPPTGEHWDVAKPCGALEKGDCPPIQLVNSVIEDGDMCDIGFGNMNFKELQQDRSGVPLDIVSTRCKWPDFLKMTNEAYGDKMFFFGRREQVYARHFFTRNGSVGEPIPNSVSPSDFYYAPDSTQDQKTLAPSVYFGTPSGSLVSSDGQLFNRPFWLQRAQGNNNGVCWHNELFVTVVDNTRNTNFTISQQTNTPNPDTYDSTNFKNYLRHVEQFELSLIAQLCKVPLDPGVLAHINTMNPTILENWNLGFVPPKEREDPYKGLIFWEVDLTERFSQDLDQFALGRKFLYQ
- binding of anti-MPV.10.34.d IRC sera (ELISA) [3]: Binding
- binding of anti-MPV.10.34.d IRC sera (ELISA) ([3]; listed as MPV.10.34.d capsid backbones): specifically recognize and bind
- recognition by MPV.A4 conformational monoclonal antibody ([4]; refolded from IBs (Example 1)): recognized
- recognition by MPV.A4 conformational monoclonal antibody ([4]; soluble (Example 4), pH 6 or pH 7): recognized
- binding to tumor cells (peak shift) (MC38 cells [5]): exhibited specificity for tumor cells
- redirection of CMV pp65-specific CD8+ T-cells to kill tumor cells (MCF7): no background tumor killing
- redirection of CMV pp65-specific CD8+ T-cells to kill tumor cells (HCT116): no background tumor killing
- binding of anti-MPV serum (ELISA) (ELISA of anti-MPV sera): Binding
- redirection of CMV pp65-specific CD8+ T-cells to kill tumor cells (OVCAR3): no background tumor killing
- binding to cells lacking HSPG expression (pgsA-745 cells): no binding
- diameter (TEM) [6]: ~30 nm
